From patent US20210347873A1 (SHANGHAI PHARMAEXPLORER, published 2021)
Blank lines part the entries; values can stand above or below the molecule they belong to.

How the values were obtained:
[1] = biological target: biotinylated hBLyS-ECD (human) (UniProt Q9Y275); assay: ELISA, coated antibody; biotinylated hBLyS-ECD 0.000032 ng/mL
[2] = biological target: biotinylated hBLyS-ECD (human) (UniProt Q9Y275); assay: ELISA, coated antibody; biotinylated hBLyS-ECD 0.000006 ng/mL
[3] = biological target: biotinylated hBLyS-ECD (human) (UniProt Q9Y275); assay: ELISA, coated antibody; biotinylated hBLyS-ECD 0.02 ng/mL
[4] = biological target: biotinylated hBLyS-ECD (human) (UniProt Q9Y275); assay: ELISA, coated antibody; biotinylated hBLyS-ECD 0.004 ng/mL
[5] = biological target: biotinylated hBLyS-ECD (human) (UniProt Q9Y275); assay: ELISA, coated antibody; biotinylated hBLyS-ECD 0.1 ng/mL
[6] = biological target: biotinylated hBLyS-ECD (human) (UniProt Q9Y275); assay: ELISA, coated antibody; biotinylated hBLyS-ECD 0.0008 ng/mL
[7] = biological target: biotinylated hBLyS-ECD (human) (UniProt Q9Y275); assay: ELISA, coated antibody; biotinylated hBLyS-ECD 0.5 ng/mL
[8] = biological target: biotinylated hBLyS-ECD (human) (UniProt Q9Y275); assay: ELISA, coated antibody; biotinylated hBLyS-ECD 0.00016 ng/mL
biotinylated hBLyS-ECD [9] = biological target: T1, biotinylated hBLyS-ECD (human, UniProt Q9Y275 134-285, biotinylated with Biotin-X-X-NHS (molar ratio 7:1), sites not stated); assay: receptor-ligand blocking ELISA: BAFF R coated, biotinylated hBLyS-ECD added with titrated antibody, HRP-avidin; blocked partner: BAFF R
T1 construct: The hBLyS-ECD of Embodiment 1 after biotinylation (Embodiment 2); also called biotinylated immunogen; BLyS protein; not shown: His tag of the pCPC vector

biotinylated hBLyS-ECD [10] = biological target: T1, biotinylated hBLyS-ECD; assay: ELISA: biotinylated hBLyS-ECD captured on streptavidin, antibody titrated, HRP secondary antibody
biotinylated hBLyS-ECD [11] = biological target: T1, biotinylated hBLyS-ECD; assay: as above; remark: listed apart in the source
biotinylated hBLyS-ECD [12] = biological target: T1, biotinylated hBLyS-ECD; assay: ELISA, biotinylated hBLyS-ECD captured on streptavidin; antibody 0.107 nM
Experimental: (§1) Streptavidin was first diluted to a final concentration of 1.0 μg/mL with PBS, and then 50 μL of diluted streptavidin per well was aliquoted into 96-well ELISA plate, which was subsequently sealed with plastic film and incubated at 4° C. overnight. On the next day the plate was washed four times with the plate washing buffer [PBS buffer containing 0.05% (v/v) Tween20] and added with the blocking solution [PBS buffer containing 0.05% (v/v) Tween20 and 1% (w/w) BSA] and blocked for 2 hours at 37° C. The blocking solution was removed, the biotinylated hBLyS-ECD prepared in Embodiment 2 was diluted with PBS to a final concentration of 50 ng/mL and then aliquoted into the 96-well ELISA plate at 50 μL per well and incubated for 1 hour at 37° C. After rinsing the plate four times with the plate washing buffer [PBS buffer containing 0.05% (v/v) Tween20], 100 μl of the purified lead antibody harvested in Embodiment 1 and 2 was pipetted into each well. After incubation for 1 hour at 37° C., the plate was rinsed four times with the plate washing buffer [PBS buffer containing 0.05% (v/v) Tween20]. HRP-labeled (horseradish peroxidase) secondary antibody (purchased from Sigma) was added in and incubated at 37° C. for 1 hour. The plate was then rinsed four times with the plate washing buffer [PBS buffer containing 0.05% (v/v) Tween20]. 100 μL of TMB substrate was aliquoted into each well and after incubation for 5 minutes at room temperature, 100 μL of stop solution (1.0 N HCl) was aliquoted into each well. A₄₅₀ₙₘ values were read via an ELISA plate reader (SpectraMax M5e purchased from Molecular Devices) and the results were shown in FIGS. 5A-5B and Table 10.

biotinylated hBLyS-ECD [13] = biological target: T1, biotinylated hBLyS-ECD; assay: ELISA, biotinylated hBLyS-ECD captured on streptavidin; antibody 0.0213 nM
Experimental: as §1

[14] = biological target: T2, human BLyS (full length, arginine 132 mutated to histidine) on CHO-K1 cells (human, UniProt Q9Y275 1-285); assay: flow cytometry (FACS) on CHO-K1 hBLyS cells, Alexa 488 secondary antibody
T2 construct: also called hBLyS; CHO-K1 hBLyS
T2 sequence (Q9Y275 other isoform, or with tags, fused parts or gaps limits assumed, change not shown): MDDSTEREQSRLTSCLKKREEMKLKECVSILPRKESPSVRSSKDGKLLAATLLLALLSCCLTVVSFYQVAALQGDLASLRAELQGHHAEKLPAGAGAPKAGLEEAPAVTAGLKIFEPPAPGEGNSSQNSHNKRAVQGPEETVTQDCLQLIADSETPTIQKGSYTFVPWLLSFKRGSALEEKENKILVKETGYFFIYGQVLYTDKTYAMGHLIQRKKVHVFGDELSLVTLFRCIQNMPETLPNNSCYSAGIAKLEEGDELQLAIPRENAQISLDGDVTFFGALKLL
Experimental: (§2) The medium was aspirated completely, and the cells were rinsed once with PBS buffer (purchased from Invitrogen) and then treated with cell dispersion solution (TrypLE™ Express Enzyme, purchased from Life technology) and collected. The detailed steps are as follows: the cells were rinsed once with PBS buffer, after counting, the cells were diluted to 2×10⁶ cells/ml with PBS buffer, blocked with 2% (w/w) fetal bovine serum and incubated on ice for 30 minutes. 200 μL of which per well was aliquoted into a 96-well FACS plate and centrifuged at 2000 rpm at 4° C., then each 100 μL of the lead antibodies obtained from Embodiment 1 and 2 were aliquoted into each well and incubated on ice for 1 hour. […] After centrifuged and rinsed 3 times with FACS buffer, cells were suspended with 200 μL of FACS buffer and the results were detected and analyzed by FACS (FACS Calibur, purchased from BD). It was shown in Tables 12-13 that the lead antibody could bind to human BLyS protein on the cell surface and the lead antibody could cross-react with cynomolgus BLyS. The data in the table is MFI, the average fluorescence intensity of the cell population.

biotinylated hBLyS-ECD [15] = biological target: T1, biotinylated hBLyS-ECD; assay: ELISA, biotinylated hBLyS-ECD captured on streptavidin; antibody 13.3 nM
Experimental: as §1

[16] = biological target: T3, cynomolgus BLyS (full length, arginine 132 mutated to histidine) on CHO-K1 cells (cynomolgus, UniProt Q9Y275 1-285 (human entry)); assay: flow cytometry (FACS) on CHO-K1 cynoBLyS cells, Alexa 488 secondary antibody
T3 construct: also called cyno BLyS; CHO-K1 cynoBLyS
T3 chain: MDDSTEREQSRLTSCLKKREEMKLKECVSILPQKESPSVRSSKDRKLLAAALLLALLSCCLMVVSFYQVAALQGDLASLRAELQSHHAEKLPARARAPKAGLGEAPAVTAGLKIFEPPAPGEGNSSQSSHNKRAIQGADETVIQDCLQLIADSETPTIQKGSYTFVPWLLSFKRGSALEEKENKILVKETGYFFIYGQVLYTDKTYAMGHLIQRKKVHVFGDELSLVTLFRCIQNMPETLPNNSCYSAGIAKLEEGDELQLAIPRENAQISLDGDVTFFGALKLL
Experimental: as §2

biotinylated hBLyS-ECD [17] = biological target: T1, biotinylated hBLyS-ECD; assay: ELISA, biotinylated hBLyS-ECD captured on streptavidin; antibody 66.7 nM
Experimental: as §1

biotinylated hBLyS-ECD [18] = biological target: T1, biotinylated hBLyS-ECD; assay: ELISA, biotinylated hBLyS-ECD captured on streptavidin; antibody 0.00427 nM
Experimental: as §1

biotinylated hBLyS-ECD [19] = biological target: T1, biotinylated hBLyS-ECD; assay: ELISA, biotinylated hBLyS-ECD captured on streptavidin; antibody 0 nM (blank)
Experimental: as §1

biotinylated hBLyS-ECD [20] = biological target: T1, biotinylated hBLyS-ECD; assay: ELISA, biotinylated hBLyS-ECD captured on streptavidin; antibody 2.67 nM
Experimental: as §1

biotinylated hBLyS-ECD [21] = biological target: T1, biotinylated hBLyS-ECD; assay: ELISA: biotinylated hBLyS-ECD captured on streptavidin, antibody titrated, HRP secondary antibody [label printed at the top of D00004]
Experimental: as §1

biotinylated hBLyS-ECD [22] = biological target: T1, biotinylated hBLyS-ECD; assay: ELISA, biotinylated hBLyS-ECD captured on streptavidin; antibody 0.534 nM
Experimental: as §1

Molecule: BLyS antibody (purchased from GSK)
OD450 nm [1]: 0.19 | OD450 nm [2]: 0.08 | OD450 nm [3]: 3.24 | OD450 nm [4]: 3.14 | OD450 nm [5]: 3.36 | OD450 nm [6]: 2.01 | OD450 nm [7]: 3.39 | OD450 nm [8]: 0.54

B2: 8E7D9C7F5 (antibody, V domains shown)
VH: QVQLQQSGVELARPGASVKLSCKASGYTFTSYGISWVKQRTGQALEWIGEIYPRSGNTYYNEKFKGKATLTADKSSSTAYMELRSLTSEDSAVYFCARSGPITTLVATDYGMDYWGQGTSVTVSS
VL: DIVLTQSPASLAVSLGQRATISCRASKSVSTSSYSYMHWYQQKPGQPPKLLIKFASNLESGVPARFSGSGSGTDFTLNIHPVEEEDAATYYCQHSREFPYTFGGGTKLEIK
notes: Mouse hybridoma antibody purified on Protein G
OD450 nm (biotinylated hBLyS-ECD [12]): 0.946 | OD450 nm (biotinylated hBLyS-ECD [13]): 0.291 | EC50 (read off the curve) [14]: ~0.1 nM | OD450 nm (biotinylated hBLyS-ECD [15]): 2.56 | EC50 (read off the curve) [16]: ~0.1 nM | OD450 nm (biotinylated hBLyS-ECD [17]): 2.72 | OD450 nm (biotinylated hBLyS-ECD [18]): 0.115 | OD450 nm (biotinylated hBLyS-ECD [19]): 0.0564 | OD450 nm (biotinylated hBLyS-ECD [20]): 2.53 | EC50 (read off the curve) (biotinylated hBLyS-ECD [21]): ~0.2 nM | OD450 nm (biotinylated hBLyS-ECD [22]): 2.06

The remaining lines, values ahead:

IC50 (read off the curve) (biotinylated hBLyS-ECD [9]): ~2 nM | EC50 (read off the curve) (biotinylated hBLyS-ECD [10]): ~0.1 nM | EC50 (read off the curve) (biotinylated hBLyS-ECD [11]): ~0.05 nM
B1: c97A3C2H4 (antibody, human IgG1, V domains shown)
VH: EVKLVESGGGLVQPGGSLKLSCAASGFTFSTYTMSWVRQTPEKRLEWVAYISYGGGSTSYPDTVKGRFTISRDNAKNTLYLQMSSLKSEDTAIYYCTRHVTVVENSMDYWGQGTSVTVSS
VL: DILLTQSPDILSVSPGERVSFSCRASQSIGTSIHWYQQRTNGSPRLLIKYVSESFSGTPSRFSGSGSGTAFTLTINSVESEDIADYYCQQTHSWPWTFGGGTKLEIK
notes: also called BLyS chimeric antibody

IC50 (read off the curve) (biotinylated hBLyS-ECD [9]): ~0.08 nM | EC50 (read off the curve) (biotinylated hBLyS-ECD [11]): ~0.07 nM
B3: c111D10D6G3 (antibody, human IgG1, V domains shown)
VH: QVQLQQPGAELVKPGASVKMSCKASGYTFTRHWITWVKQRPGQGLEWIGDIFPGSGSINYNEKFKSEATLTVEKSSSTAYMQLSSLTSEDSAVYYCARGDVDVWGTGTTVTVSS
VL: DIQMTQSPSSLSASLGERVSLTCRASQEIRGYLSWLQQKPNGTIKRLIYAASTLDSGVPKRFSATRSGSDFSLTISSLESEDFADYYCLQYASYPFTFGSGTKLEIK
notes: as for B1
